According to patent US20120100134A1, “GENETIC VARIANTS IN ANGIOGENESIS PATHWAY ASSOCIATED WITH CLINICAL OUTCOME” (University of Southern California, priority 2009, published 2012):

Tested on: advanced NSCLC patients
Assay: Toxicity: grade3-4 hypertension versus genotype, E4599 subset
Format: in vivo, human
Settings: bevacizumab arm
Description: The problem, however, is that there is hardly any power to do this. There were a total of 30 cases on E4599 who reported grade3-4 hypertension of any attribution type on this study. Once these cases are merged with the correlatives dataset, there is an overlap of only 7 hypertension cases in the correlative study. The distribution of hypertension versus genotype for these VEGF polymorphisms, as well as the WNK1 polymorphisms is as follows: […]

Substance: Bevacizumab
- HTN (number of patients, grade3-4 hypertension) (VEGF634 CC): 1
- No HTN (number of patients) (VEGF634 CC): 10
- HTN (number of patients, grade3-4 hypertension) (VEGF634 GC): 0
- HTN (number of patients, grade3-4 hypertension) (VEGF634 GG): 6
- No HTN (number of patients) (VEGF1498 CC): 18
- HTN (number of patients, grade3-4 hypertension) (VEGF1498 CT): 1
- No HTN (number of patients) (VEGF1498 CT): 21
- No HTN (number of patients) (VEGF1498 TT): 17
- HTN (number of patients, grade3-4 hypertension) (WNK1-2158501 GG (so in the source)): 1
- No HTN (number of patients) (WNK1-2158501 TT (so in the source)): 18
- HTN (number of patients, grade3-4 hypertension) (WNK1-110644560 GG): 0
- No HTN (number of patients) (WNK1-110644560 GG): 7
- HTN (number of patients, grade3-4 hypertension) (WNK1-110644560 GT): 1
- HTN (number of patients, grade3-4 hypertension) (WNK1-110644560 TT): 6
- No HTN (number of patients) (WNK1-110644560 TT): 18
